Assay results taken from publication PMC4735476, “Dataset concerning GroEL chaperonin interaction with proteins” (Data in Brief, 2016).

Biological target: T1, GroEL chaperonin ( (purified from Escherichia …, UniProt P0A6F5 1-548))
T1 construct: GroEL chaperonin, purified from Escherichia coli cells (HB101 strain) after expression of the plasmid pGroE4
Assay: fluorescence polarisation; 30×10^-9 M denatured fluorescein-labeled protein titrated with GroEL in 20 mM Tris–HCl, pH 7.5, 20 mM DTT, 10 mM MgCl2, 300 mM NaCl; apparent constant, counted on GroEL cavities
Conditions: both partners purified

T1 sequence (P0A6F5 whole entry): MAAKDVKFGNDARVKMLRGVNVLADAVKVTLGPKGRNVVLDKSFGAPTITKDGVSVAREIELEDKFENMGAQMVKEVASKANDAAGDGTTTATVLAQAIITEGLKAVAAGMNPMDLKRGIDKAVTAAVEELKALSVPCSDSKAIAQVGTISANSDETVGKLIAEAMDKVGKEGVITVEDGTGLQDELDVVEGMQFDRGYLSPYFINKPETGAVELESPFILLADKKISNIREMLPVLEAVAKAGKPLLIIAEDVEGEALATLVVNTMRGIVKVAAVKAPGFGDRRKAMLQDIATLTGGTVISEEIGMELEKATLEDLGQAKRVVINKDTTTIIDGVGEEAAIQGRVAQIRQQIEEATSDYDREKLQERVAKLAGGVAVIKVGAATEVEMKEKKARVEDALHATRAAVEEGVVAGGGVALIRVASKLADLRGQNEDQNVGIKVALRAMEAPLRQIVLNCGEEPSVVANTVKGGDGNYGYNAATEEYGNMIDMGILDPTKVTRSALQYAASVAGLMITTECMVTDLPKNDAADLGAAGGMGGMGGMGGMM

B1: fluorescein-labeled human α-lactalbumin (natural protein, UniProt P00709 20-142, looked up)
chain: KQFTKCELSQLLKDIDGYGGIALPELICTMFHTSGYDTQAIVENNESTEYGLFQISNKLWCKSSQVPQSRNICDISCDKFLDDDITDDIMCAKKILDIKGIDYWLAHKALCTEKLEQWLCEKL
modifications: fluorescein label (fluorescein isothiocyanate), position not stated
notes: Human α-lactalbumin; The same labelled protein was used native (20 mM Tris-HCl, pH 7.5) and denatured (buffer with 20 mM DTT); the assays tell the two states apart; also called native α-lactalbumin; denatured α-lactalbumin; source: bought: Sigma (USA), used without additional purification; labelled with fluorescein isothiocyanate, PD-10 and MonoQ
  Kd: 1.6 nM
